The text below walks through data of article PMC3213119.

Usually stoichiometry N stands for a count of units in the complex or per binding partner.

The target of this experiment is TssM-ekto (periplasmic domain of TssM, 386-1129), after TEV cleavage (enteroaggregative Escherichia coli strain 17-2). The experiment can be described thus: SEC-MALS; MALS/QELS/UV/RI of the TssM-ekto/TssJ complex; 10 mM HEPES pH 7.5, 150 mM NaCl.

Consider “TssJ (enteroaggregative E. coli Sci1 T6SS), residues 2-155 of the processed lipoprotein, fusion and tag cleaved (domain or fragment)”, for which the stoichiometry N was 1.
